T1: MPDZ_7, O75970
T1 sequence (O75970 1146-1253, limits assumed, looked up): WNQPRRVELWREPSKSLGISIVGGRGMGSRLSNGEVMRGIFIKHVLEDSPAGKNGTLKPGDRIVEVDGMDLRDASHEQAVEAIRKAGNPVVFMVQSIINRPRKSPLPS

T2: GIPC1, O14908
T2 sequence (O14908 128-223, limits assumed, looked up): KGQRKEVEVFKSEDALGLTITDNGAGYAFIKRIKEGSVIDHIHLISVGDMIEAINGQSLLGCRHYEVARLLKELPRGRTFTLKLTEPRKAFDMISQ

T3: MPDZ_6, O75970
T3 sequence (O75970 1003-1099, limits assumed, looked up): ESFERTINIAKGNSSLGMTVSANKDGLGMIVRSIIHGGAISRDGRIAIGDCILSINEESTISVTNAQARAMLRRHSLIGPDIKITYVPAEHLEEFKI

T4: MPDZ_13, O75970
T4 sequence (O75970 1982-2070, limits assumed, looked up): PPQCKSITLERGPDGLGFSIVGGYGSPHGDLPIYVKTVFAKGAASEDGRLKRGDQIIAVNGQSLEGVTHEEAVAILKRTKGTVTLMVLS

T5: RGS12, O14924
T5 sequence (O14924 17-108, limits assumed, looked up): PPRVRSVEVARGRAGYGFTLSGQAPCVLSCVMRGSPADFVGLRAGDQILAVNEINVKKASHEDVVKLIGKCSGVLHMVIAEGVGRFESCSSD

T6: MPP5, Q8N3R9
T6 sequence (Q8N3R9 251-346, limits assumed, looked up): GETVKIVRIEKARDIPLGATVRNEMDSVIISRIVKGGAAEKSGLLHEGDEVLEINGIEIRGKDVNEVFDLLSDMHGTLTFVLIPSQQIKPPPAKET

T7: PARD6G, Q9BYG4
T7 sequence (Q9BYG4 153-261, limits assumed, looked up): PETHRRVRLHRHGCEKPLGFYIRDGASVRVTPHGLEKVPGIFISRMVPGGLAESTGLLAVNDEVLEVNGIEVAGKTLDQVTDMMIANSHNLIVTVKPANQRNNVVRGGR

T8: SNTB2, Q13425
T8 sequence (Q13425 110-208, limits assumed, looked up): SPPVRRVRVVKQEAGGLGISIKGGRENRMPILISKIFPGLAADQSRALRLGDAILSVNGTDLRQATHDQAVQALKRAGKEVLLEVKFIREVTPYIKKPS

T9: PTPN4, P29074
T9 sequence (P29074 512-599, limits assumed, looked up): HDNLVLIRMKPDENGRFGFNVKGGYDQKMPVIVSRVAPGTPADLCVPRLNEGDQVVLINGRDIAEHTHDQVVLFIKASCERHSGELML

T10: SHANK3, Q9BYB0
T10 sequence (Q9BYB0 641-750, limits assumed, looked up): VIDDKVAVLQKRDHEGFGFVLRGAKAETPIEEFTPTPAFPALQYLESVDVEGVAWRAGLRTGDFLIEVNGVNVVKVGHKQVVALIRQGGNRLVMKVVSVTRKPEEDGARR

T11: INTU, Q9ULD6
T11 sequence (Q9ULD6 180-273, limits assumed, looked up): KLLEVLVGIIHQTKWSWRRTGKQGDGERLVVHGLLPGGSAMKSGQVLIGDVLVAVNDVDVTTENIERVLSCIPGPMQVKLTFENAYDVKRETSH


How the values were obtained:
Assay in all cases: holdup assay
Design in all cases: key: below the threshold = too weak to quantify, mostly under pKd 3.1 to 4
Settings in all cases: plain residues with an end cap or a label only (N-terminal biotin on a linker: ttds)
MPDZ_7, O75970 = molecular target: T1, MPDZ_7, O75970
Q13368 = molecular target: Q13368
MAGI1_6, Q96QZ7 = molecular target: MAGI1_6, Q96QZ7
Chain of MAGI1_6, Q96QZ7 (Q96QZ7 1146-1238): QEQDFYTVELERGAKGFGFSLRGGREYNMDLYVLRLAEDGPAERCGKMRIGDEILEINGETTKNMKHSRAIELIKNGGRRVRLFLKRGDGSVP

GIPC1, O14908 = molecular target: T2, GIPC1, O14908
RGS3, P49796-9 = molecular target: RGS3, P49796-9
Chain of RGS3, P49796-9 (P49796 other isoform, or with tags, fused parts or gaps): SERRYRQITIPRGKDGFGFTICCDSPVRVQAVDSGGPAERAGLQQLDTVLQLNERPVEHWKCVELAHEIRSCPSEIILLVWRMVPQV

CARD14, Q9BXL6 = molecular target: CARD14, Q9BXL6
Chain of CARD14, Q9BXL6 (Q9BXL6 558-663): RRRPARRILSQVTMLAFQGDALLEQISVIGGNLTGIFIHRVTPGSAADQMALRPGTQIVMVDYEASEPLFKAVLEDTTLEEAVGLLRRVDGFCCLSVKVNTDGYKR

Q9NPB6 = molecular target: Q9NPB6
MPDZ_6, O75970 = molecular target: T3, MPDZ_6, O75970
GIPC3, Q8TF64 = molecular target: GIPC3, Q8TF64
Chain of GIPC3, Q8TF64 (Q8TF64 107-202): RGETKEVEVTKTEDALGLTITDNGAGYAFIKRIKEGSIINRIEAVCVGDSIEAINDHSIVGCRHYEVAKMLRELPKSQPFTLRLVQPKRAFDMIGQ

TJP1_1, Q07157 = molecular target: TJP1_1, Q07157
Chain of TJP1_1, Q07157 (Q07157 18-120): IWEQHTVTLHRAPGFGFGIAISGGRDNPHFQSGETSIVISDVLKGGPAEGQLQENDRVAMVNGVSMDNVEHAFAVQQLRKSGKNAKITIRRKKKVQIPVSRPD

MPDZ_13, O75970 = molecular target: T4, MPDZ_13, O75970
RGS12, O14924 = molecular target: T5, RGS12, O14924
MPP5, Q8N3R9 = molecular target: T6, MPP5, Q8N3R9
PARD6G, Q9BYG4 = molecular target: T7, PARD6G, Q9BYG4
Q9P227 = molecular target: Q9P227
Q8IUC4 = molecular target: Q8IUC4
PARD3B_3, Q8TEW8 = molecular target: PARD3B_3, Q8TEW8
Chain of PARD3B_3, Q8TEW8 (Q8TEW8 490-594): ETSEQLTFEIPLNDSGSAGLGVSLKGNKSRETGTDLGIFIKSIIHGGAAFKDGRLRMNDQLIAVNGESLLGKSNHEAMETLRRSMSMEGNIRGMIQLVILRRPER

PDLIM4, P50479 = molecular target: PDLIM4, P50479
Chain of PDLIM4, P50479 (P50479 1-83): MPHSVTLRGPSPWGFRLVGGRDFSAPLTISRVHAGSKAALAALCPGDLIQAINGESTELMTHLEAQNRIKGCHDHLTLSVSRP

GRIP2_2, Q9C0E4 = molecular target: GRIP2_2, Q9C0E4
Chain of GRIP2_2, Q9C0E4 (Q9C0E4 137-245): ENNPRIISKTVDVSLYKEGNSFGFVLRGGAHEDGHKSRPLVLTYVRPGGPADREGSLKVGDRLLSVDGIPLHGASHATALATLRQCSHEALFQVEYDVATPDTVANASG

SNTB2, Q13425 = molecular target: T8, SNTB2, Q13425
DVL2, O14641 = molecular target: DVL2, O14641
Chain of DVL2, O14641 (O14641 260-359): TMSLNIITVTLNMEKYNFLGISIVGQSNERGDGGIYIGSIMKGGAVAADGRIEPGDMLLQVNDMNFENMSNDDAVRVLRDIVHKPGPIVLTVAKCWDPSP

MAST3, O60307 = molecular target: MAST3, O60307
Chain of MAST3, O60307 (O60307 945-1048): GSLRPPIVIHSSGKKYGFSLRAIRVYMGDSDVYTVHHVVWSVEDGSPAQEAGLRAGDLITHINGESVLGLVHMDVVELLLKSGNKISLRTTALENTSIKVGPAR

PARD3B_2, Q8TEW8 = molecular target: PARD3B_2, Q8TEW8
Chain of PARD3B_2, Q8TEW8 (Q8TEW8 376-471): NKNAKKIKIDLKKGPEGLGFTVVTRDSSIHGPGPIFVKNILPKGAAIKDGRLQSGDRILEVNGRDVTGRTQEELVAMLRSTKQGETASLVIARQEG

PTPN4, P29074 = molecular target: T9, PTPN4, P29074
MAGI3_3, Q5TCQ9 = molecular target: MAGI3_3, Q5TCQ9
Chain of MAGI3_3, Q5TCQ9 (Q5TCQ9 572-655): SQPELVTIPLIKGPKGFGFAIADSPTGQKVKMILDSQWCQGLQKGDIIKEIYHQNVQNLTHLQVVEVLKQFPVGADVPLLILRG

Q9NR12 = molecular target: Q9NR12
SHANK3, Q9BYB0 = molecular target: T10, SHANK3, Q9BYB0
INTU, Q9ULD6 = molecular target: T11, INTU, Q9ULD6

Binder	pKd (MPDZ_7, O75970)	pKd (MAGI1_6, Q96QZ7)	pKd (GIPC1, O14908)	pKd (RGS3, P49796-9)	pKd (CARD14, Q9BXL6)	pKd (MPDZ_6, O75970)	pKd (GIPC3, Q8TF64)	pKd (TJP1_1, Q07157)	pKd (MPDZ_13, O75970)	pKd (RGS12, O14924)	pKd (MPP5, Q8N3R9)	pKd (PARD6G, Q9BYG4)	pKd (PARD3B_3, Q8TEW8)	pKd (PDLIM4, P50479)	pKd (SNTB2, Q13425)	pKd (DVL2, O14641)	pKd (MAST3, O60307)	pKd (PTPN4, P29074)	pKd (MAGI3_3, Q5TCQ9)	pKd (SHANK3, Q9BYB0)	also measured
SVWLRKETRV [CYSLTR2, Q9NS75]	4.33	below the threshold	below the threshold	below the threshold	below the threshold	below the threshold	below the threshold	4.78	below the threshold	below the threshold	below the threshold	below the threshold	below the threshold	below the threshold	5.14	below the threshold	below the threshold	4.52	below the threshold	below the threshold	pKd (Q13368): below the threshold; pKd (Q9NPB6): below the threshold; pKd (Q9P227): below the threshold; pKd (Q8IUC4): below the threshold; pKd (GRIP2_2, Q9C0E4): below the threshold; pKd (PARD3B_2, Q8TEW8): below the threshold; pKd (Q9NR12): below the threshold; pKd (INTU, Q9ULD6): below the threshold
SSRTRRETQL [HPV16-E6, P03126]	4.22	below the threshold	4.13	below the threshold	below the threshold	below the threshold	below the threshold	4.22	below the threshold	4.37	below the threshold	below the threshold	below the threshold	below the threshold	4.12	below the threshold	below the threshold	4.61	below the threshold	below the threshold	pKd (GRIP2_2, Q9C0E4): below the threshold; pKd (PARD3B_2, Q8TEW8): below the threshold; pKd (INTU, Q9ULD6): below the threshold
SRPQRTQTQV [HPV67-E6, A4U7F2]	below the threshold	below the threshold	below the threshold	below the threshold	below the threshold	below the threshold	below the threshold	below the threshold	below the threshold	below the threshold	below the threshold	below the threshold	below the threshold	below the threshold	below the threshold	below the threshold	below the threshold	below the threshold	below the threshold	below the threshold	pKd (INTU, Q9ULD6): below the threshold
RSLEEEESQL [GRASP, Q7Z6J2]	below the threshold	below the threshold	4.1	below the threshold	below the threshold	below the threshold	below the threshold	below the threshold	below the threshold	below the threshold	below the threshold	below the threshold	below the threshold	below the threshold	below the threshold	below the threshold	below the threshold	below the threshold	below the threshold	5.24	pKd (Q13368): below the threshold; pKd (Q9NPB6): below the threshold; pKd (Q9P227): below the threshold; pKd (Q8IUC4): below the threshold; pKd (GRIP2_2, Q9C0E4): below the threshold; pKd (PARD3B_2, Q8TEW8): below the threshold; pKd (Q9NR12): below the threshold

From article PMC9482650, “Quantitative fragmentomics allow affinity mapping of interactomes” (Nature Communications, 2022)
